Measurements from patent US20200024330A1.

Legend:
[1] = target: Env of all HIV-1 pseudoviruses of the cross-clade 162-pseudovirus panel (n = 162); assay: cell-based or functional assay
[2] = target: Env of the clade B HIV-1 pseudoviruses of the cross-clade 162-pseudovirus panel (n = 31); assay: cell-based or functional assay
[3] = target: Env of the clade D HIV-1 pseudoviruses of the cross-clade 162-pseudovirus panel (n = 25); assay: cell-based or functional assay
[4] = target: Env of the clade G HIV-1 pseudoviruses of the cross-clade 162-pseudovirus panel (n = 15); assay: cell-based or functional assay
[5] = target: HIV-1 Env of isolate 92UG031 (HIV-1); assay: cell-based or functional assay
[6] = target: HIV-1 Env of isolate 94KE105 (HIV-1); assay: cell-based or functional assay
[7] = target: HIV-1 Env of isolate MGRM-A-005 (HIV-1); assay: cell-based or functional assay
[8] = target: HIV-1 Env of isolate MGRM-A-006 (HIV-1); assay: cell-based or functional assay
[9] = target: HIV-1 Env of isolate MGRM-AE-003 (HIV-1); assay: cell-based or functional assay
[10] = target: HIV-1 Env of isolate MGRM-C-026 (HIV-1); assay: cell-based or functional assay
[11] = target: HIV-1 JR-CSF Env F210A (HIV-1 JR-CSF) (UniProt P20871); assay: cell-based or functional assay
[12] = target: HIV-1 JR-CSF Env H330A (HIV-1 isolate JR-CSF) (UniProt P20871); assay: cell-based or functional assay
[13] = target: HIV-1 JR-CSF Env I307A (HIV-1 JR-CSF) (UniProt P20871); assay: cell-based or functional assay
[14] = target: HIV-1 JR-CSF Env I309A (HIV-1 JR-CSF) (UniProt P20871); assay: cell-based or functional assay
[15] = target: HIV-1 JR-CSF Env I414A (HIV-1 (isolate JR-CSF)) (UniProt P20871); assay: cell-based or functional assay
[16] = target: HIV-1 JR-CSF Env I415A (HIV-1 (isolate JR-CSF)) (UniProt P20871); assay: cell-based or functional assay
[17] = target: HIV-1 JR-CSF Env I423A (HIV-1 (isolate JR-CSF)) (UniProt P20871); assay: cell-based or functional assay
[18] = target: HIV-1 JR-CSF Env I424A (HIV-1 (isolate JR-CSF)) (UniProt P20871); assay: cell-based or functional assay
[19] = target: HIV-1 JR-CSF Env N241A (HIV-1 JR-CSF) (UniProt P20871); assay: cell-based or functional assay
[20] = target: HIV-1 JR-CSF Env N301A (HIV-1 JR-CSF) (UniProt P20871); assay: cell-based or functional assay
[21] = target: HIV-1 JR-CSF Env N302A (HIV-1 JR-CSF) (UniProt P20871); assay: cell-based or functional assay
[22] = target: HIV-1 JR-CSF Env N332A (HIV-1 isolate JR-CSF) (UniProt P20871); assay: cell-based or functional assay
[23] = target: HIV-1 JR-CSF Env N411A (HIV-1 (isolate JR-CSF)) (UniProt P20871); assay: cell-based or functional assay
[24] = target: HIV-1 JR-CSF Env Q337A (HIV-1 isolate JR-CSF) (UniProt P20871); assay: cell-based or functional assay
[25] = target: HIV-1 JR-CSF Env R350A (HIV-1 isolate JR-CSF) (UniProt P20871); assay: cell-based or functional assay
[26] = target: HIV-1 JR-CSF Env S199A (HIV-1 JR-CSF) (UniProt P20871); assay: cell-based or functional assay
[27] = target: HIV-1 JR-CSF Env S334A (HIV-1 isolate JR-CSF) (UniProt P20871); assay: cell-based or functional assay
[28] = target: HIV-1 JR-CSF Env T297A (HIV-1 JR-CSF) (UniProt P20871); assay: cell-based or functional assay
[29] = target: HIV-1 JR-CSF Env T319A (HIV-1 isolate JR-CSF) (UniProt P20871); assay: cell-based or functional assay
[30] = target: HIV-1 JR-CSF Env T320A (HIV-1 isolate JR-CSF) (UniProt P20871); assay: cell-based or functional assay
[31] = target: HIV-1 JR-CSF Env T341A (HIV-1 isolate JR-CSF) (UniProt P20871); assay: cell-based or functional assay
[32] = target: HIV-1 JR-CSF Env T388A (HIV-1 (isolate JR-CSF)) (UniProt P20871); assay: cell-based or functional assay
[33] = target: HIV-1 JR-CSF Env T394A (HIV-1 (isolate JR-CSF)) (UniProt P20871); assay: cell-based or functional assay
[34] = target: HIV-1 JR-CSF Env T413A (HIV-1 (isolate JR-CSF)) (UniProt P20871); assay: cell-based or functional assay
[35] = target: JR-FL gp120 ΔV1/ΔV2 (HIV-1 (isolate JR-FL)); assay: ELISA on coated gp120; EC50 by nonlinear regression
[36] = target: WT JR-FL gp120 (HIV-1 (isolate JR-FL)); assay: as above

B1: PGT-127 (antibody, V domains shown)
VH: QPQLQESGPGLVEASETLSLTCTVSGDSTGRCNYFWGWVRQPPGKGLEWIGSLSHCRSYYNTDWTYHNPSLKSRLTISLDTPKNQVFLRLTSVTAADTATYYCARFGGEVLVYRDWPKPAWVDLWGRGTLVVTVS
VL: QSALTQPPSASGSPGQSITISCTGTSNNFVSWYQQYPGKAPKLVIYEVNKRPSGVPDRFSGSKSGSTASLTVSGLQADDEGVYYCSSLVGNWDVIFGGGTKLTVL
For B1, the Median IC50 against viruses neutralized with an IC50 <50 µg/ml [1] was 0.08 µg/mL, the Median IC50 against viruses neutralized with an IC50 <50 µg/ml [2] was 0.06 µg/mL and the Median IC50 against viruses neutralized with an IC50 <50 µg/ml [3] was 0.49 µg/mL. The Median IC50 against viruses neutralized with an IC50 <50 µg/ml [4] was 0.22 µg/mL, the IC50 (µg/mL), pseudovirus neutralization [5] was greater than 50 µg/mL and the IC50 (µg/mL), pseudovirus neutralization [6] was 0.023 µg/mL. The IC50 (µg/mL), pseudovirus neutralization [7] was greater than 50 µg/mL, the IC50 (µg/mL), pseudovirus neutralization [8] was greater than 50 µg/mL and the IC50 (µg/mL), pseudovirus neutralization [9] was greater than 50 µg/mL. The Polyclonal Transfectant Neutralization Index (well 5145 B14) [10] was 2.62, the Primary Neutralization Index (B cell culture well 5145 B14) [10] was 86.9 and the Fold IC50 increase relative to wild-type [11] was 0.8 fold. It also gave a Fold IC50 increase relative to wild-type [12] of 0.5 fold, a Fold IC50 increase relative to wild-type [13] of 10.2 fold and a Fold IC50 increase relative to wild-type [14] of 6 fold. For the same binder, the Fold IC50 increase relative to wild-type [15] was 2.2 fold, the Fold IC50 increase relative to wild-type [16] was 2.1 fold and the Fold IC50 increase relative to wild-type [17] was 0.5 fold. For the same binder, the Fold IC50 increase relative to wild-type [18] was 2 fold, the Fold IC50 increase relative to wild-type [19] was 0.6 fold and the Fold IC50 increase relative to wild-type [20] was greater than 250 fold. For the same binder, the Fold IC50 increase relative to wild-type [21] was 3 fold, the Fold IC50 increase relative to wild-type [22] was greater than 100 fold and the Fold IC50 increase relative to wild-type [23] was 0.8 fold. For the same binder, the Fold IC50 increase relative to wild-type [24] was 0.5 fold, the Fold IC50 increase relative to wild-type [25] was 1.1 fold and the Fold IC50 increase relative to wild-type [26] was 3 fold. For the same binder, the Fold IC50 increase relative to wild-type [27] was greater than 500 fold, the Fold IC50 increase relative to wild-type [28] was 1.7 fold and the Fold IC50 increase relative to wild-type [29] was 1 fold. It also gave a Fold IC50 increase relative to wild-type [30] of 1.8 fold, a Fold IC50 increase relative to wild-type [31] of 1.7 fold and a Fold IC50 increase relative to wild-type [32] of 0.5 fold. It also gave a Fold IC50 increase relative to wild-type [33] of 1.6 fold, a Fold IC50 increase relative to wild-type [34] of 0.8 fold and an EC50 [35] of 0.7 µg/mL. The EC50 [36] was 0.1 µg/mL.
